Experiments:
[1] = target: the molecule itself; test: AUC; sedimentation velocity, 0.15 mg/mL SP-BN in 5 mM Tris-HCl pH 7.0, 500 mM NaCl, 20°C, 48,000 rpm; 35% of the loaded protein detected
[2] = target: the molecule itself; test: differential scanning calorimetry; 0.3 mg/mL SP-BN in 5 mM Tris-HCl pH 7, 500 mM NaCl, 20-120°C at 60°C/h; second transition fitted to the Non Two-State model with two peaks; ratio of van't Hoff to calorimetric enthalpy
[3] = target: the molecule itself; test: AUC; sedimentation velocity, 0.15 mg/mL SP-BN in 5 mM Tris-HCl pH 7.0, 150 mM NaCl, 20°C, 48,000 rpm
[4] = target: the molecule itself; test: cross-linking; 0.26 mg/mL SP-BN in 20 mM Tris-HCl, 500 mM NaCl pH 7.0, 0.08% (v/v) glutaraldehyde for 20 s and 120 s at 20°C; SDS-PAGE and immunoblot

B1: NH2-terminal propeptide of the precursor of pulmonary surfactant protein SP-B (recombinant human SP-BN) (domain or fragment, UniProt P07988 24-200, looked up)
chain: AWTTSSLACAQGPEFWCQSLEQALQCRALGHCLQEVWGHVGADDLCQECEDIVHILNKMAKEAIFQDTMRKFLEQECNVLPLKLLMPQCNQVLDDYFPLVIDYFQNQTDSNGICMHLGLCKSRQPEPEQEPGMSDPLPKPLRDPLPDPLLDKLVLPVLPGALQARPGPHTQDLSEQQ
notes: 177 amino acids, 19,902 Da from the composition; Not glycosylated (made in bacteria); also called N-terminal propeptide of proSP-B; the propeptide; source: E. coli, expressed as fusion MBP-SP-BN, purified after cleaving the fusion with factor Xa
stoichiometry N [1]: 6
stoichiometry N [2]: ~4
stoichiometry N [3]: 2
stoichiometry N [4]: 3

Source: paper PMC4933373, “Conformational Stability of the NH2-Terminal Propeptide of the Precursor of Pulmonary Surfactant Protein SP-B” (PLoS ONE, 2016)
